Measurements taken from patent publication US20070128627A1 (US Dept. of Health and Human Services, published 2007).

What was measured:
VP16/GR = target: T1, VP16/GR (UniProt P06536 1-795); experiment: mammalian two-hybrid ±1 µM Dex (FIG. 6B)
T1 construct: Assayed with and without 1 µM Dex
T1 sequence: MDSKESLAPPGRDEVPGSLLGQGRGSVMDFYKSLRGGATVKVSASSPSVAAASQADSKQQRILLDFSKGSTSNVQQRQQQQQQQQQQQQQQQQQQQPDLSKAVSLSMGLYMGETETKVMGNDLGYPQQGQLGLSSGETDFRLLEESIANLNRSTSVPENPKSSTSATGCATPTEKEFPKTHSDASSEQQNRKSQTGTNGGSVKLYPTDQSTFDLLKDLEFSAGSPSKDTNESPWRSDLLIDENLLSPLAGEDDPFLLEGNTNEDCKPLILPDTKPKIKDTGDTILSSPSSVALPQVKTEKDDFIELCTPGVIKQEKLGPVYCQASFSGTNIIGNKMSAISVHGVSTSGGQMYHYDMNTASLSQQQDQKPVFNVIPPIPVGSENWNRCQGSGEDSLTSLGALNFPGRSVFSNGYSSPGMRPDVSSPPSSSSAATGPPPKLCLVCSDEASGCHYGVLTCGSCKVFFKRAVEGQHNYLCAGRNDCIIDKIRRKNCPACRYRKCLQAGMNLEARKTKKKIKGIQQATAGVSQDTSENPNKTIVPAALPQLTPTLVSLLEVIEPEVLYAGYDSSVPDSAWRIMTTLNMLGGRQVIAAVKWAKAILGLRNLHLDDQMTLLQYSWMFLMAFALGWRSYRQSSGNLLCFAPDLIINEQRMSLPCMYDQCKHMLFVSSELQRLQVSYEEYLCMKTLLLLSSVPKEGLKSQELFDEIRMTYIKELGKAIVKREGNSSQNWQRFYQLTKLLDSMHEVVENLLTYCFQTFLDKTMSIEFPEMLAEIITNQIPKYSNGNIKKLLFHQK

VP16/TIF2.4 = target: T2, VP16/TIF2.4 (human, UniProt Q15596 624-1010); experiment: mammalian two-hybrid in CV-1 cells, relative luciferase activity (FIG. 6A)
T2 construct: Only the TIF2.4 fragment is present; The text gives no limits for it, so the whole TIF2 entry is named
T2 sequence: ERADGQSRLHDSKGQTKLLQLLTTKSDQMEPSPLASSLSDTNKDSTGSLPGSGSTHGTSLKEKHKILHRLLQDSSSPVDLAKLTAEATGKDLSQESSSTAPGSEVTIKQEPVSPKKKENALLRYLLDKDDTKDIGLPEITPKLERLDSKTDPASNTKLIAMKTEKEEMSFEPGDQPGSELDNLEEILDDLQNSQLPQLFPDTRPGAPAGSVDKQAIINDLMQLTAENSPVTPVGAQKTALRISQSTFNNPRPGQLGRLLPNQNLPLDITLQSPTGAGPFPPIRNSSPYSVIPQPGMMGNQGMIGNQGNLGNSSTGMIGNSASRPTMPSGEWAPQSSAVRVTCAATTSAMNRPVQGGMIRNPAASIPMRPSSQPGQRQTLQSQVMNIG
Source text: Triplicate samples of CV-1 cells were transiently transfected with VP16 or VP16/TIF2.4 in FIG. 6A experiments. […] After determining the relative luciferase activities as described in FIG. 2B and 2C, the average values±S.E.M. from 2-5 experiments were plotted.

B1: GAL/STAMP(623-834) (other)
chain: MKLLSSIEQACDICRLKKLKCSKEKPKCAKCLKNNWECRYSPKTKRSPLTRAHLTEVESRLERLEQLFLLIFPREDLDMILKMDSLQDIKALLTGLFVQDNVNKDAVTDRLASVETDMPLTLRQHRISATSSSEESSNKGQRQLTVSENTPKENSMKVREWNNKGGHCCKLETQELEPKFNLMQILQDNGNLSKMQARIAFSAYLQHVQIRLMKDSGGQTFSASWAAKEDEQMELVVRFLKRASNNLQHSLRMVLPSRRLALLERRRILAHQLGDFIIVYNKETEQMAEKKSKKKVEEEEEDGVNMENFQEFIRQASEAELEEVLTFYTQKNKSASVFLGTHSKISKNNNNYSDSGAKG
notes: domain: GAL-DBD; Expressed in CV-1 cells for the mammalian two-hybrid assay; also called Gal/6-6CL1
binding result (VP16/GR): no binding | average fold increase above the VP16 control (VP16/TIF2.4): 11 fold
